We go through two substances from patent publication US20190083585.

Data set [1] relates to fluorescently quenched α-gliadin hexapeptide analogue QXL520-PQPQLP-K(5-FAM)-NH2.
Data set [2] concerns T1, immunodominant α9-gliadin peptide QLQPFPQPQLPY
T1 sequence: QLQPFPQPQLPY

glutamine-specific endoprotease EP-B2 (native), sequence (chain, as listed by the source): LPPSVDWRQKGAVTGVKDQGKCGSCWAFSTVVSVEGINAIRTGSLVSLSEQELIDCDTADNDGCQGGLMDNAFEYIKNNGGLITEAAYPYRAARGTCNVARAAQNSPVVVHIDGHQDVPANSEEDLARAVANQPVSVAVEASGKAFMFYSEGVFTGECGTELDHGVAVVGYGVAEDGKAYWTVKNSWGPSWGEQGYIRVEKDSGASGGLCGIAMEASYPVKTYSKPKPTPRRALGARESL

For “glutamine-specific endoprotease EP-B2 (native)”, the activity result in the data set on Suc-APQ-pNA, in the data set with Suc-APE-pNA, in the data set on Suc-APR-pNA and in the data set with Suc-AQP-pNA was “no activity” in each case. Besides, the “activity at pH 4” value in data set [1] is “only very low levels of activity were detected”.
prolyl endopeptidase SC PEP (native): the “degradation of the peptide after 50 minutes (LC-MS, pH 4, 37° C.)” value in data set [2] is recorded as “no significant degradation of the peptide was observed”. In addition, the “catalytic activity at pH 4” value in the data set on Suc-APQ-pNA, in the data set on Suc-APE-pNA, with Suc-APR-pNA and in the data set with Suc-AQP-pNA was “did not exhibit any significant activity” throughout. The “catalytic efficiency at pH 4” value in data set [1] came out at 1.6 M^-1s^-1. For the same substance, the “fold lower level of activity than KumaMax” value in data set [1] was “roughly 350-fold lower level of activity on this substrate than KumaMax”. Further, the “catalytic efficiency at pH 7” value with Suc-AQP-pNA is recorded as 2390 M^-1s^-1.
